Target: T1, biotinylated C36 peptide bL4_C36 (residues 628 to 663 of HIV-1 HXB2 Env, gp41 HR2) (HIV-1 HXB2, N-terminal biotin attached through the Gly-Ser-Gly-Ser linker; C-terminal amide)
T1 construct: also called C36 derivative
T1 peptide: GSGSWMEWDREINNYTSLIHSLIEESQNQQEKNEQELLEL
Assay: ITC, bL4_C36 (50 microM, syringe) titrated into scAB013_N3 (2.46 microM, cell), 1:1 binding model

B1: scAB013_N3 Alphabody, N-terminally appended with a (His)6 tag (designed binder)
chain: HHHHHHAAIAAQQHLIALIQWGIAQLQARIYAMTGGSSGGMSIEEIQKQIAAIQKQIAAIQKQIYRMTGGSSGGMSIQAIQKQLQAIVKQIKAIQKQILAMEA
notes: Expressed in E. coli BL21(DE3) from pET16b and purified by IMAC and SEC; also called gp41 N-trimer-mimicking Alphabody
With B1 the Kd was 0.15 µM and the ΔH was -30 kJ/mol.

Source: patent US20120177676A1 (COMPLIX, published 2012)
